Earlier results on one substance are cited in article PMC10410519.

A word on the Ki: it is a measure of affinity in units of concentration, obtained from inhibition or displacement.

In the data set the target is Growth hormone receptor (Homo sapiens) (UniProt P10912). The data set is described as follows: competition.

For the substance hGH (from UniProt P01241), the Ki was 3.5 nM.
